Columns and labels:
[1] = cell lysate anti-myc blot; conditions: glycan lost; control: wild type
[2] = in-gel HA digestion, alcian blue staining; conditions: glycan lost; control: wild type

B1: hyaluronidase1 (HYAL1): N99Q (protein)
parent chain: MAAHLLPICALFLTLLDMAQGFRGPLLPNRPFTTVWNANTQWCLERHGVDVDVSVFDVVANPGQTFRGPDMTIFYSSQLGTYPYYTPTGEPVFGGLPQNASLIAHLARTFQDILAAIPAPDFSGLAVIDWEAWRPRWAFNWDTKDIYRQRSRALVQAQHPDWPAPQVEAVAQDQFQGAARAWMAGTLQLGRALRPRGLWGFYGFPDCYNYDFLSPNYTGQCPSGIRAQNDQLGWLWGQSRALYPSIYMPAVLEGTGKSQMYVQHRVAEAFRVAVAAGDPNLPVLPYVQIFYDTTNHFLPLDELEHSLGESAAQGAAGVVLWVSWENTRTKESCQAIKEYMDTTLGPFILNVTSGALLCSQALCSGHGRCVRRTSHPKALLLLNPASFSIQLTPGGGPLSLRGALSLEDQAQMAVEFKCRCYPGWQAPWCERKSMW
In the case of B1, the expression_or_secretion [1] is reported as “decreases”.

B2: hyaluronidase1 (HYAL1): N350Q (protein)
parent chain: B1 parent chain
For B2, the enzymatic_activity [2] was “decreases” and the expression_or_secretion [1] was “decreases”.

B3: hyaluronidase1 (HYAL1): N216Q (protein)
parent chain: B1 parent chain
In the case of B3, the enzymatic_activity [2] is reported as “decreases” and the expression_or_secretion [1] is reported as “decreases”.
